Measurements as given in patent US20050048639.

Tests used:
p72 (D600E) = target: T1, p72 (D600E)
T1 chain: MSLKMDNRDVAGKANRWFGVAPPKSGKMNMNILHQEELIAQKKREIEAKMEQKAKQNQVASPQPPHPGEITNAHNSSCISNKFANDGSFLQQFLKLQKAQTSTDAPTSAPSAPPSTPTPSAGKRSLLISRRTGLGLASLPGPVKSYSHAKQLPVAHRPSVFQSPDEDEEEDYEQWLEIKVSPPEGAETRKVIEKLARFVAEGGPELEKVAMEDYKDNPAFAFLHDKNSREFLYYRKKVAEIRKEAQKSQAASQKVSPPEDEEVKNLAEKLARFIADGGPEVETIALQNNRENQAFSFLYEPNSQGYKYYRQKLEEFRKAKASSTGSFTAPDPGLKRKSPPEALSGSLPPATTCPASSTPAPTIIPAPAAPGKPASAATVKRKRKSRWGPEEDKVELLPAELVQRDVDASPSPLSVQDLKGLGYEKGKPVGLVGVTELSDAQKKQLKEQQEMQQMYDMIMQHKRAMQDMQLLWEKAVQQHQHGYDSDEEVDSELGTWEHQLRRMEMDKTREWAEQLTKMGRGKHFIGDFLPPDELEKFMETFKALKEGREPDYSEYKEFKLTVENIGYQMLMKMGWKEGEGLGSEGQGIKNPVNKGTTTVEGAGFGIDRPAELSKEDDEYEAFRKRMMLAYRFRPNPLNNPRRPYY

p72 (Cari) = target: T2, p72 (Cari)
T2 chain: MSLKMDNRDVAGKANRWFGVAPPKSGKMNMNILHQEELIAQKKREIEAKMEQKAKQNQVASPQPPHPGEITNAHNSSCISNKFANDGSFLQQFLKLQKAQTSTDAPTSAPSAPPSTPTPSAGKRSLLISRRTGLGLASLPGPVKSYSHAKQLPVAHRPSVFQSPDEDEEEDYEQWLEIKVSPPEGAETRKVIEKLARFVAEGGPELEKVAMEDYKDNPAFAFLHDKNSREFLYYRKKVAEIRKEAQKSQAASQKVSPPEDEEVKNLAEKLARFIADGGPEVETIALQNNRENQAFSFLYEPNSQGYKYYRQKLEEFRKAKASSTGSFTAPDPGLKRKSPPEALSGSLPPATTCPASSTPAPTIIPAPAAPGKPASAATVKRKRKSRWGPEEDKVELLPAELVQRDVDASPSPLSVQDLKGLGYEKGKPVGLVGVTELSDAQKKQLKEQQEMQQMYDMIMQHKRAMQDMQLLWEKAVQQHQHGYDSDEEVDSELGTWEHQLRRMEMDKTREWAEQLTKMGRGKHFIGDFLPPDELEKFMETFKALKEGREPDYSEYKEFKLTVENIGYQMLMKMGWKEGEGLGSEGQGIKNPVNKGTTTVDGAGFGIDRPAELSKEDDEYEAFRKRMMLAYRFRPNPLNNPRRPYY

p72 (1-600) = target: T3, p72 (1-600)
T3 chain: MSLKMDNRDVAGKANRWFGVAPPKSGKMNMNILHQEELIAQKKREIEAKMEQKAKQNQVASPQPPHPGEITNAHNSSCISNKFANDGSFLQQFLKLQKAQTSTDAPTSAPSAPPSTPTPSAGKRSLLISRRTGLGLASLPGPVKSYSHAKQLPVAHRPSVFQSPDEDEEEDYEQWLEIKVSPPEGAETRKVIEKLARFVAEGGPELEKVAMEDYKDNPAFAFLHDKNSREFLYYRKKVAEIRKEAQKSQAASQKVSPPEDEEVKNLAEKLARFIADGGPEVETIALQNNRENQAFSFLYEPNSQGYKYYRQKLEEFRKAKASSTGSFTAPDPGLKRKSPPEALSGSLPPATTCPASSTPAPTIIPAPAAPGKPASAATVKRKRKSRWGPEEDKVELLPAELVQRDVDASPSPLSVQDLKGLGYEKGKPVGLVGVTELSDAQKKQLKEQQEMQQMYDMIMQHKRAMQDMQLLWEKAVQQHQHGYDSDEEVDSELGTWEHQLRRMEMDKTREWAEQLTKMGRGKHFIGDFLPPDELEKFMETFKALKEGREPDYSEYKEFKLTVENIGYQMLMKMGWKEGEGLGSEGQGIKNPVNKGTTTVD

B1: recombinant active caspase-8 (protein)
chain 1: EELCGVMTISDSPREQDSESQTLDKVYQMKSKPRGYCLIINNHNFAKAREKVPKLHSIRDRNGTHLDAGALTTTFEELHFEIKPHHDCTVEQIYEILKIYQLMDHSNMDCFICCILSHGDKGIIYGTDGQEAPIYELTSQFTGLKCPSLAGKPKVFFI
chain 2: GIPVETDSEEQPYLEMDLSSPQTRYIPDEADFLLGMATVNNCVSYRNPAEGTWYIQSLCQSLRERCPRGDDILTILTEVNYEVSNKDDKKNMGKQ
Question: For B1, which “cleavage of in vitro translated 35S-labeled Cari D600E by recombinant active caspase-8 (SDS-PAGE, phospho-imaging)” value (p72 (D600E)) is on record?
Answer: The value was “the same protein profile of Cari D600E mutant is observed in the presence or the absence of caspase-8”.

Question: What about the “cleavage of in vitro translated 35S-labeled Cari by recombinant active caspase-8 (SDS-PAGE, phospho-imaging)” value (p72 (Cari)) of the same protein?
Answer: Its value is “This band disappears after addition of activated caspase-8 for 1 hour and a new smaller fragment corresponding to 68 kDa appears (lane 4)”.

Question: And the “cleavage of in vitro translated 35S-labeled Cari 1-600 by recombinant active caspase-8 (SDS-PAGE, phospho-imaging)” value (p72 (1-600))?
Answer: The value was “co-migrates with the 68 kDa fragment produced after cleavage of the wild type Cari and is not further cleaved by addition of caspase-8”.
